The text below walks through data of patent US20160324962A1, “COMPOSITIONS AND METHODS FOR TREATING SARCOMA” (MEDIMMUNE, LLC, priority 2013, published 2016).

The target in series [1] is T1, IGF-1 in RD-ES tumors (Homo sapiens, UniProt P05019).
T1 construct: endogenous in cells; host or cells: RD-ES (Ewing's sarcoma) xenograft tumors in athymic nude mice
Briefly: Free IGF ligands in xenograft tumors (ELISA). The series is classed as in vivo, mice. As to conditions: different amounts of MEDI-573. The method, then:
(§1) Free IGF ligands were measured in xenograft tumors in untreated mice and in mice treated with different amounts of MEDI-573. […] Despite KHOS cells being unresponsive to IGF-1 and/or IGF-2 stimulation, IGF-2 levels were examined in a KHOS/NP model.
(§2) Sarcoma cell lines were purchased from American type Culture Collection (Manassas, Va.). CellTiter-Glo reagents were obtained from Promega (Madison, Wis.). Whole cell lysate kits for pIGF-1R, pIR-A, and pAKT were purchased from Meso Scale Discovery (MSD; Rockville, Md.). ELISA kits for total IGF-1 and IGF-1R were purchased from R&D Systems (Minneapolis, Minn.). ELISA kits for total IGF-2 were purchased from Insight Genomics (Falls Church, Va.). An ELISA kit for detecting free IGF-1 and IGF-2 was developed in house. Human IGF-1 and IGF-2 were obtained from R&D Systems (Minneapolis, Minn.). Antibodies for detecting phospho-AKT, phospho-4EBP1, phospho-S6K, and GAPDH were from Cell Signaling Technology (Beverly, Mass.).
A general note: ELISA stands for enzyme-linked immunosorbent assay.

Series [2] deals with Akt phosphorylation. Briefly: pAKT assay in sarcoma cells (MSD). It is filed as cell-based. As to conditions: RD-ES, TC-71, SK-ES-1, and SJSA-1 cells. The protocol:
(§3) When exogenous IGF-1 or IGF-2 was added to cells, there was an induction of phosphorylation of IGF-1R and IR-A in all cells examined.
(§4) The sarcoma lines were cultured overnight in complete medium. The following day, medium containing 0.1% charcoal stripped fetal bovine serum (FBS) was added to the cultures and the cultures incubated overnight. The next day, cells were treated with various treatments for 5 minutes. Media was removed; cells were washed and lysed with 1.0% Triton X lysis buffer with protease and phosphatase inhibitors. Approximately 8-20 μg of total protein was loaded on MSD 96-Well MULTI-SPOT plates and the level of total and phosphorylated IGF-1R, IR-A and IRS-1 protein was determined using the Insulin Signaling Panel (total protein) and Insulin Signaling Panel (phosphoprotein) Whole Cell Lysate kits according to the manufacturers protocol. The level of total and phosphorylated AKT was determined using the Phospho (Ser473)/Total AKT Assay Whole Cell Lysate kit according to manufacturer's standard protocol.

The subject of series [3] is pS6K. Briefly: Immunoblot of cell lysates after MEDI-573, mTORi, combination. The series is classed as cell-based. As to conditions: RD-ES and SJSA-1 cells, 4 hours. The method, then:
(§5) To examine the effect of MEDI-573, mTORi, and combination of both on IGF signaling, RD-ES, SJSA-1, and KHOS cells were treated with these agents for 4 hours. After separation of the cell lysates by gel electrophoresis, the proteins were detected by immunoblotting.
For orientation: Immunoblotting shows a protein as a band on a membrane.

Series [4] deals with p4EBP1. Described as above. As to conditions: single agent, 4 hours. It is filed as cell-based. The protocol: as §5
Series [5] deals with RD-ES cells. Briefly: Cytotoxicity assay, MEDI-573 and mTOR inhibitors. It is filed as cell-based. As to conditions: agents alone or in combination (FIG. 14).
Series [6] deals with IR-A phosphorylation. Briefly: pIR-A assay in sarcoma cells (MSD). The series is classed as cell-based. The protocol: as §3, §4
The subject of series [7] is IGF-1R phosphorylation. Briefly: pIGF-1R assay in sarcoma cells (MSD). The series is classed as cell-based. The protocol: as §3, §4
Series [8] has as its system engineered NIH3T3 and human tumor cell lines. Briefly: In vitro growth of engineered and tumor cell lines. It is filed as cell-based. An excerpt: MEDI 573 selectively binds to human insulin-like growth factor (hIGF)-I and hIGF-2 and […]. MEDI-573 targets the IGF-1 and IGF-2 ligands and thereby inhibits IGF-mediated signal transduction. […] Furthermore, MEDI-573 has potential to achieve this without perturbing glucose homeostasis, which has been an adverse effect observed with investigational agents that target IGF 1R. The results of in vitro studies have shown that MEDI-573 inhibited both IGF-1 and IGF-2-stimulated phosphorylation of IGF 1R and that of downstream signaling proteins including Akt and MAPK in a number of engineered mouse embryonic fibroblast NIH-3T3 cell lines transfected to express human IGF-1R and either human IGF-1/-2. Furthermore, MEDI-573 inhibited autocrine phosphorylation of these signaling molecules.

In series [9] the target is T2, human IGF-2 in KHOS/NP model (Homo sapiens, UniProt P01344).
T2 construct: endogenous in cells; host or cells: KHOS/NP (osteosarcoma) xenograft tumors in athymic nude mice
Briefly: Free IGF ligands in xenograft tumors (ELISA). The series is classed as in vivo, mouse xenograft. The settings on record: up to 60 mg/kg. The protocol: as §1, §2

The target in series [10] is T3, IGF-2 in SJSA-1 tumors (Homo sapiens, UniProt P01344).
T3 construct: endogenous in cells; host or cells: SJSA-1 (osteosarcoma) xenograft tumors in athymic nude mice
Briefly: Free IGF ligands in xenograft tumors (ELISA). As to conditions: even at the lowest dose of 10 mg/kg. It is filed as in vivo, mouse xenograft. The method, then:
as §1, §2

For series [11], the system named is pS6K. Briefly: In vivo mechanism of action study, immunoblot of tumors. As to conditions: RD-ES-bearing mice injected with human IGF-1/-2, MEDI-573 pretreatment. The protocol:
IGF-1/-2 injection did change the baseline level of p4EBP-1.
(§6) For in vivo mechanism of action (MOA) studies, when tumors reached approximately 400 mm^3, a single dose of MEDI-573 was given. Tumor and plasma samples were collected 4 hr after dosing to assess the effect of MEDI-573 on autocrine IGF signaling. In another set of mice, 6 hr after MEDI-573 dosing, human IGF-1 or IGF-2 was injected by tail-vein. Tumor and plasma samples were collected 15 min after IGFs injection to assess the effect of MEDI-573 on IGF-1/-2 induced signaling.

Series [12] deals with T4, human IGF-1 (Homo sapiens, UniProt P05019).
T4 construct: purchased R&D Systems (Minneapolis, Minn.)
Briefly: IGF levels in tumor and plasma after injection of human IGF. The series is classed as in vivo, mice. As to conditions: RD-ES tumor lysates and plasma, intraperitoneal pretreatment for 6 hours, 15 min after IGF-1 injection. The method, then: (§7) Thus, human IGF-1 and IGF-2 (IGF-1/-2) were injected into mice in an attempt to understand the role of IGF ligands in driving tumor growth when delivered by endocrine or paracrine secretion, and the effect of MEDI-573 in inhibiting this function. Fifteen minutes after IGF-1 or IGF-2 injection, high levels of IGF-1 or IGF-2 were detected both in RD-ES tumor and plasma.
as §6

Series [13] addresses T5, human IGF-2 (Homo sapiens, UniProt P01344).
T5 construct: purchased R&D Systems (Minneapolis, Minn.)
The description is as above. The settings on record: RD-ES tumor lysates and plasma, intraperitoneal pretreatment for 6 hours, 15 min after IGF-2 injection. The series is classed as in vivo, mice. The method, then:
as §7, §6

Setting [14] is: RD-ES, TC-71, SK-ES-1, and SJSA-1 cells.
The mark [15] stands for this setting: pretreatment with MEDI-573, exogenous IGF-1 or IGF-2.

T2 sequence (P01344 25-91): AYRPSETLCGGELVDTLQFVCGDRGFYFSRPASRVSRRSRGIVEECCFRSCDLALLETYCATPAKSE
T3 sequence (P01344 25-91): as above
T5 sequence (P01344 25-91 limits assumed): as the sequence (P01344 25-91) above
T4 sequence (P05019 49-118 limits assumed): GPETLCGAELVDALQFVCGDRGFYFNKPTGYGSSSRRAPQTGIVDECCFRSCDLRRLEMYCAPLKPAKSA
T1 sequence (P05019 49-118): as the sequence (P05019 49-118 limits assumed) above

B1: MEDI-573: fully human monoclonal IgG2 lambda antibody that binds IGF-2 with cross reactivity to IGF-1; hybridoma 7.159.2, ATCC PTA-7424 (antibody)
heavy: QVQLVQSGAEVKKPGASVKVSCKASGYTFTSYDINWVRQATGQGLEWMGWMNPNSGNTGYAQKFQGRVTMTRNTSISTAYMELSSLRSEDTAVYYCARDPYYYYYGMDVWGQGTTVTVSSASTKGPSVFPLAPCSRSTSESTAALGCLVKDYFPEPVTVSWNSGALTSGVHTFPAVLQSSGLYSLSSVVTVPSSNFGTQTYTCNVDHKPSNTKVDKTVERKCCVECPPCPAPPVAGPSVFLFPPKPKDTLMISRTPEVTCVVVDVSHEDPEVQFNWYVDGVEVHNAKTKPREEQFNSTFRVVSVLTVVHQDWLNGKEYKCKVSNKGLPAPIEKTISKTKGQPREPQVYTLPPSREEMTKNQVSLTCLVKGFYPSDIAVEWESNGQPENNYKTTPPMLDSDGSFFLYSKLTVDKSRWQQGNVFSCSVMHEALHNHYTQKSLSLSPGK
light: QSVLTQPPSVSAAPGQKVTISCSGSSSNIENNHVSWYQQLPGTAPKLLIYDNNKRPSGIPDRFSGSKSGTSATLGITGLQTGDEADYYCETWDTSLSAGRVFGGGTKLTVLGQPKAAPSVTLFPPSSEELQANKATLVCLISDFYPGAVTVAWKADSSPVKAGVETTTPSKQSNNKYAASSYLSLTPEQWKSHRSYSCQVTHEGSTVEKTVAPTECS
B1: the “free IGF-1 in tumors” value in series [1] is given as “dose-dependent suppression”. In addition, in series [2], the “IGF-1 and IGF-2 stimulated phosphorylation of Akt” value is listed as “blocks this effect”; the “autophosphorylation of Akt” value was “inhibited autophosphorylation”. The “phosphorylation of S6K” value in series [3] is on record as “inhibited phosphorylation of S6K”. The “phosphorylation of 4EBP1” value in series [4] is on record as “did not have effect”. Besides, in series [5], the “decrease in cell viability” value is on record as 56%. Besides, the “autophosphorylation of IR-A” value in series [6] (KHOS cells) is recorded as “not in KHOS cells”. Moreover, the “autophosphorylation of IR-A” value in series [6] (setting [14]) is reported as “inhibited autophosphorylation”. The “IGF-1/-2-induced activation of IR-A” value in [6] (setting [15]) is given as “inhibited”. For the same molecule, in series [7] (setting [14]), the “autophosphorylation of IGF-1R” value is “inhibited autophosphorylation”. Also, the “IGF-1/-2-induced activation of IGF-1R” value in [7] (setting [15]) was “inhibited”. The growth in vitro result in series [8] is “effectively inhibited the growth”. Moreover, the “human IGF-2 levels in tumors” value in series [9] is “Dose-dependent inhibition”. Further, the “free IGF-2 in tumors” value in [10] was “almost completely neutralized”. In [11], the “IGF-induced pS6K in tumors” value was “dramatic reduction”. Moreover, the “reduction of IGF-1 levels” value in series [12] is given as “approximately 50%”. Besides, the “reduction of IGF-2 levels” value in series [13] was “almost completely”.
